This is an account of results in PMC5004264, “The pesticidal Cry6Aa toxin from Bacillus thuringiensis is structurally similar to HlyE-family alpha pore-forming toxins” (BMC Biology, 2016).

For assay [1], the target named is full-length, wild-type Cry6Aa1 (Bacillus thuringiensis) (UniProt Q45757). Briefly: SEC + other: non-denaturing and denaturing SDS-PAGE; Superdex 75 26/90, 25 mM CAPS pH 10, 50 mM NaCl, 2.5 ml/min; first peak at the void volume held dimers (only monomers on denaturing SDS-PAGE), second peak predominantly monomer.
For assay [2], the target named is T1, Cry6Aa trypsin-resistant core, polypeptide chain 12-390 (Bacillus thuringiensis, UniProt Q45757 12-390).
T1 construct: cut after Arg11 and after Arg390; Never separated from the C-terminal peptide without reduction; Cys88 is disulfide bonded to Cys451 of the peptide; also called main body of the toxin; major core
T1 sequence (looked up): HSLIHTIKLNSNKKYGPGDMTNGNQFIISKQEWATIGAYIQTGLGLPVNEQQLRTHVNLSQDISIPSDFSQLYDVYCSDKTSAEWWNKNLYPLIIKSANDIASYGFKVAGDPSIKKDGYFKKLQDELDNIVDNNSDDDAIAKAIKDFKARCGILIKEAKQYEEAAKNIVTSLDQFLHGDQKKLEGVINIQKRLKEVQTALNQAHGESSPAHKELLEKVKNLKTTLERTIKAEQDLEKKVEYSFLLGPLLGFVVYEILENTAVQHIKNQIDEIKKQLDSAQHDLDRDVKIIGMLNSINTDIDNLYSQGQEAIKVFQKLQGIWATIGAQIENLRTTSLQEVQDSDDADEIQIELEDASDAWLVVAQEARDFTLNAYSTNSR
Briefly: intact mass LC-MS. The note with it: both partners purified.

Consider “full-length, wild-type Cry6Aa1 (from UniProt Q45757 1-475) (natural protein)”, for which the stoichiometry N (as a rule, the number of molecules, sites or subunits per partner or assembly) in assay [1] is 2.

B1: Cry6Aa C-terminal peptide CTP1 (residues 444-475) (peptide)
peptide: NSNLEYKCPENNFMIYWYNNSDWYNNSDWYNN
notes: Cys451 is disulfide bonded to Cys88 of chain 12-390
For the molecule B1, the binding result in assay [2] is “binds”.

B2: Cry6Aa C-terminal peptide CTP2 (residues 451-475) (peptide)
peptide: CPENNFMIYWYNNSDWYNNSDWYNN
notes: Minor species of the trypsin-processed toxin
B2: the binding result in assay [2] is given as “binds”.
